Patent US20220396794, “[…] AGAINST TRANSFERRIN RECEPTOR (TfR)” (APTERNA LIMITED, published 2022)

Legend:
[1] = target: T1, Transferrin receptor 1 (hTfR/hTFRC) extracellular domain (Homo sapiens, UniProt P02786 SEQ:89-760); test: SPR; 30 mM Tris pH 7.5, 150 mM NaCl, 5 mM MgCl2; aptamer immobilised; details: tags: N-terminal His6; expressed in HEK293; Sino Biological 11020-H07H; chain copies: 2 (inferred); label: biotin (SPR) or Cy3 (cells)
Protocol: (§1) Surface plasmon resonance-based biosensor assay. The Biacore T100 (GE Healthcare, Uppsala, Sweden) was used to monitor label-free interactions of truncated TR14-hTfR1 in real time. The biotinylated aptamer was coupled to a streptavidin-coated Biacore chip (SensorChip SA, BR-1003-98, General Electric Company) by an injection in binding buffer at a concentration of 25 μg/mL (30 mM Tris-HCl, pH 7.5; 150 mM NaCl; 5 mM MgCl₂) at 10 uL/min. The RNA was refolded by heating to 65° C., followed by cooling to 37° C., before immobilization. To measure binding kinetics, five concentrations of purified hTfR1 protein were injected at a flow rate of 10 uL/min. After binding, the surface was regenerated by injecting 50 mM NaOH at a flow rate of 15 μL/min for 20 s. Data from the control surface were subtracted. BIAevaluation software (GE Healthcare) was used for analysis. The binding data was fit to a 1:1 binding with a mass transfer model to calculate kinetics parameters as previously described (Hernandez et al, 2009; Soontornworajit et al, 2011)

[2] = target: T1, Transferrin receptor 1 (hTfR/hTFRC) …; test: SPR; not measurable; details: tags: N-terminal His6; expressed in HEK293; Sino Biological 11020-H07H; chain copies: 2 (inferred); label: biotin (SPR) or Cy3 (cells)
Protocol: as §1

T1 sequence (P02786 89-760): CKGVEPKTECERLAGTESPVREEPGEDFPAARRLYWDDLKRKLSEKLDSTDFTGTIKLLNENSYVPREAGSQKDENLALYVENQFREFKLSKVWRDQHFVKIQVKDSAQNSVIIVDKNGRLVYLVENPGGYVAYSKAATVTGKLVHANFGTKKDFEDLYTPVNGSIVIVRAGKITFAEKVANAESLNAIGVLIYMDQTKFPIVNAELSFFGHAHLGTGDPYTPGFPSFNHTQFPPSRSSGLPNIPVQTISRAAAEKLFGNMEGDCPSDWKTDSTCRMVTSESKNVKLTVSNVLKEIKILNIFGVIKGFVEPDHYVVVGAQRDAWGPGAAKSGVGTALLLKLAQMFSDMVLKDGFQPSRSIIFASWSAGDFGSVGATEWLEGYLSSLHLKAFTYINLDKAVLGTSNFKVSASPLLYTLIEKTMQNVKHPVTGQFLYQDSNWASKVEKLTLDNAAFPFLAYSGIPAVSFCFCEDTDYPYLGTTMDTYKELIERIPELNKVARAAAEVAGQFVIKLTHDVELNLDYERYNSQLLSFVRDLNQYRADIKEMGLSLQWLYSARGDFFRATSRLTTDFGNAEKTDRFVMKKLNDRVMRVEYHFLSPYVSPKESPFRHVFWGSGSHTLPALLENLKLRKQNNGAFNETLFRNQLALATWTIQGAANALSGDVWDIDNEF

Row | Binder | Kd [1] [nM] | binding result [2]
1 | GGGGCUCAAUGCGUUCACGUUUAUUCACAUUUUUGAAUUGAGCAUG (ssRNA, 2'-F pyrimidines (rule of the parent selection)) [TR14 S1 (46-nt)] | 1.46 | 
2 | UUUAUUCACAUUUUUGAAUUGA (ssRNA, 2'-F pyrimidines (rule of the parent selection)) [TR14 ST1-3 (22-nt)] | 0.022 | 
3 | GCUCAAUGCGUUCACGUUUAUUCACAUUUUUGAAUUGAGC (ssRNA, 2'-F pyrimidines (rule of the parent selection)) [TR14 ST1-1 (40-nt)] |  | no binding
4 | AAUGCGUUCACGUUUAUUCACAUUUUUGAAUU (ssRNA, 2'-F pyrimidines (rule of the parent selection)) [TR14 ST1-2 (32-nt)] |  | no binding
